Assay results taken from IntAct's records for PubMed 24525233.

B1: Transcription cofactor vestigial-like protein 4 (Homo sapiens), Q14135 (parent)
chain: METPLDVLSRAASLVHADDEKREAALRGEPRIQTLPVASALSSHRTGPPPISPSKRKFSMEPGDEDLDCDNDHVSKMSRIFNPHLNKTANGDCRRDPRERSRSPIERAVAPTMSLHGSHLYTSLPSLGLEQPLALTKNSLDASRPAGLSPTLTPGERQQNRPSVITCASAGARNCNLSHCPIAHSGCAAPGPASYRRPPSAATTCDPVVEEHFRRSLGKNYKEPEPAPNSVSITGSVDDHFAKALGDTWLQIKAAKDGASSSPESASRRGQPASPSAHMVSHSHSPSVVS

Variants of: B1
Settings: with tead4_human TEAD4, Q15561
Chain of tead4_human TEAD4, Q15561 (Q15561 whole entry): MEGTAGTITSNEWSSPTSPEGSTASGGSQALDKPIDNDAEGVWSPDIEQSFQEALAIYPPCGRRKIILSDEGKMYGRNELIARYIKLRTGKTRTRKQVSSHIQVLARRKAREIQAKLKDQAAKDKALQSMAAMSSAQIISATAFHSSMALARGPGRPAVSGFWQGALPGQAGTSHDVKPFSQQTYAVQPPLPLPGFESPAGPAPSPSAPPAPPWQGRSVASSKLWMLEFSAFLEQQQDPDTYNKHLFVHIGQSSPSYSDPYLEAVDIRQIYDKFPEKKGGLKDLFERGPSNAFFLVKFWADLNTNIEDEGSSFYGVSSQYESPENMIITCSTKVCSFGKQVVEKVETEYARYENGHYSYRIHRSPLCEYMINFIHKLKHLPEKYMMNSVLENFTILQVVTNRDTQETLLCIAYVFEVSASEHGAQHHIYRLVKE

Row | Variant | effect of a mutation on the interaction
1 | H212A;F213A;H240A;F241A | disrupting interaction
2 | H240A;F241A | decreasing interaction
3 | H240A | decreasing interaction
4 | L245A | decreasing interaction

Variants of: B1
Settings: with tead4_human TEAD4, Q15561
Remark: another data set of the same source

Row | Variant | effect of a mutation on the interaction
5 | W249A | decreasing interaction
